Measurements taken from patent publication CN1421459A.

Tests used:
人T细胞CD3 (human) [1] = test: flow cytometry on human PBMC, unlabelled huGD3 competing with saturating FITC-mGD3; calculated by the formula [X]-[mGD3]=(1/Kx)-(1/Ka)
人T细胞CD3 (human) [2] = test: fluorescence staining, flow cytometry, antibody 0.1 μg/ml; cells not named
人T细胞CD3 (human) [3] = test: cell-based or functional assay
人T细胞CD3 (human) [4] = test: fluorescence staining, flow cytometry, antibody 1 μg/ml; cells not named
人T细胞CD3 (human) [5] = test: fluorescence staining and flow cytometry on CD3-positive HPBLL or Jurkat cells, compared with mOKT3 (Fig. 3)
人T细胞CD3 (human) [6] = test: fluorescence staining, flow cytometry, antibody 10 μg/ml; cells not named

Chain of 人T细胞CD3 (human) (P07766 23-207, chain 1 of 4): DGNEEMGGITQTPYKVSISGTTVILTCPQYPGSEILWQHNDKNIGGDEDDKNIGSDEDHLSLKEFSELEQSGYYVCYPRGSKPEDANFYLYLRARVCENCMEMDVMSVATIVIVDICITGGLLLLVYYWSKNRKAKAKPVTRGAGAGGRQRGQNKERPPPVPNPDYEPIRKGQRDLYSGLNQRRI
Chain of 人T细胞CD3 (human) (P09693 23-182, chain 2 of 4, further chain): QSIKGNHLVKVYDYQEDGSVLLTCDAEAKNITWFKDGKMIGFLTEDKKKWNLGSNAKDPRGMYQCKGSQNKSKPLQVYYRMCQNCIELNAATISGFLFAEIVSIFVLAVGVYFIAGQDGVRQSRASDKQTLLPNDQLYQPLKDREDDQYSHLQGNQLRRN
Chain of 人T细胞CD3 (human) (P04234 22-171, chain 3 of 4, further chain): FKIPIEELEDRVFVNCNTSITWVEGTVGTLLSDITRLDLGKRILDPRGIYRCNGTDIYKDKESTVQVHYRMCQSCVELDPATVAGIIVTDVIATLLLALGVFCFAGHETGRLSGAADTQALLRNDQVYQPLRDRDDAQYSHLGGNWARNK
Chain of 人T细胞CD3 (human) (P20963 22-164, chain 4 of 4, further chain): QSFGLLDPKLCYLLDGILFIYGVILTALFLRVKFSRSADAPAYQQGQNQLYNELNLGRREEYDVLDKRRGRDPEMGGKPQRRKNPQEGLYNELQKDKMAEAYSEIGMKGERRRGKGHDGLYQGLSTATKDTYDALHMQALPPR

B1: 人源化抗体huGD3 (antibody, human IgG1, V domains shown)
VH: QVQLVQSGGGVVQPGRSLRLSCKASGYTFTSYTMHWVRQAPGKGLEWIGYINPSSGYTKYNQKFKDRFTISADNSKSTAFLQMDSLRPEDTAVYYCARWQDYDVYFDYWGQGTPVTVSS
VL: DIVLTQSPSSLSASVGDRVTITCRASSSVSYMHWYQQTPGKAPKPWIYATSNLASGVPSRFSGSGSGTDYTFTISSLQPEDIATYYCQQWSSNPPTFGQGTKLQITR
Q: Which Ka (人T细胞CD3 (human) [1]) does the source give for B1 here?
A: 1.6e+09 M⁻¹

Q: And the MFI (人T细胞CD3 (human) [2])?
A: 55 MFI

Q: What about the CD3调变(%), antibody 10^1 ng/ml, human PBMC, 37°C 24 h (人T细胞CD3 (human) [3]) of the same binder?
A: 13.6%

Q: And the CD3调变(%), antibody 10^2 ng/ml, human PBMC, 37°C 24 h (人T细胞CD3 (human) [3])?
A: 56.9%

Q: What about the CD3调变(%), antibody 10^3 ng/ml, human PBMC, 37°C 24 h (人T细胞CD3 (human) [3]) of the same binder?
A: 70%

Q: And the CD3调变(%), antibody 10^4 ng/ml, human PBMC, 37°C 24 h (人T细胞CD3 (human) [3])?
A: 85.4%

Q: What about the CD3调变(%), antibody 10^5 ng/ml, human PBMC, 37°C 24 h (人T细胞CD3 (human) [3]) of the same binder?
A: 85.6%

Q: What about the CD3调变(%), antibody 10^-1 ng/ml, human PBMC, 37°C 24 h (人T细胞CD3 (human) [3]) of the same binder?
A: 9.52%

Q: What about the CD3调变(%), antibody column printed '10' (probably 10^0) ng/ml, human PBMC, 37°C 24 h (人T细胞CD3 (human) [3]) of the same binder?
A: 13.2%

Q: And the MFI (人T细胞CD3 (human) [4])?
A: 76 MFI

Q: What about the 亲和力 relative to mOKT3 (orders of magnitude) (人T细胞CD3 (human) [5]) of the same binder?
A: 2 数量级

Q: What about the MFI (人T细胞CD3 (human) [6]) of the same binder?
A: 97 MFI
